Reference: paper PMC10673843 (2023)

Target: CD44 (isoform 4), Fc-fused (human)
Experiment: SPR; apparent KD, dimeric Fc-fused target

Sequence of CD44 (isoform 4), Fc-fused (human) (chain, as listed by the source): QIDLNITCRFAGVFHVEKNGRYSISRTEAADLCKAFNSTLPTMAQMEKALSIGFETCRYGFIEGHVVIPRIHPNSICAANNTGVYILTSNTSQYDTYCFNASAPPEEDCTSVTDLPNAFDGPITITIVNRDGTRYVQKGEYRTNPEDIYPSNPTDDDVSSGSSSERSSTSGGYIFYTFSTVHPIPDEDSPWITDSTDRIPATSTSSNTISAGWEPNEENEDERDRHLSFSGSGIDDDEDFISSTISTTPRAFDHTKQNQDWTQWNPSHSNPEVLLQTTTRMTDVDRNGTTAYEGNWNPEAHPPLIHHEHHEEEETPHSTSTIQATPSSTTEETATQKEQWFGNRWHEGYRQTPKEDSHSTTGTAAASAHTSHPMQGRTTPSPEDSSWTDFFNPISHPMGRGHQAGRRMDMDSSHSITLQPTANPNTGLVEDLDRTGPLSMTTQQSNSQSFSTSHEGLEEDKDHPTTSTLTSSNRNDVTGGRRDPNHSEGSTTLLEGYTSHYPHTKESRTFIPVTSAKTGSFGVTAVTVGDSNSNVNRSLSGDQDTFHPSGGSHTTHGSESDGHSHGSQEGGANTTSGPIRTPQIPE

- Kd: 48 nM
B1: BIWA4 (bivatuzumab), as human IgG4 (antibody, V domains shown)
VH: EVQLVESGGGLVKPGGSLRLSCAASGFTFSSYDMSWVRQAPGKGLEWVSTISSGGSYTYYLDSIKGRFTISRDNAKNSLYLQMNSLRAEDTAVYYCARQGLDYWGRGTLVTVSS
VL: EIVLTQSPATLSLSPGERATLSCSASSSINYIYWYQQKPGQAPRLLIYLTSNLASGVPARFSGSGSGTDFTLTISSLEPEDFAVYYCLQWSSNPLTFGGGTKVEIK
